# Assay results taken from paper PMC12016552, “Growth-coupled continuous directed evolution by MutaT7 enables efficient and automated enzyme engineering” (Applied and Environmental Microbiology, 2025).
# Substrate: O=S1(=O)OC(c2ccc(O)c(Cl)c2)(c2ccc(O[C@@H]3O[C@H](CO)[C@H](O)[C@H](O)[C@H]3O)c(Cl)c2)c2ccccc21
# Test: purified protein
# Format: biochemical, Pyrococcus furiosus
# Conditions: 25 °C, PBS pH 7.4 (CPRG assay as described for screening; screening buffer contained 2.7% glucose)
protein,measurement,setting,value
"CelB (Pyrococcus furiosus) (protein, homotetramer) MKFPKNFMFGYSWSGFQFEMGLPGSEVESDWWVWVHDKENIASGLVSGDLPENGPAYWHLYKQDHDIAEKLGMDCIRGGIEWARIFPKPTFDVKVDVEKDEEGNIISVDVPESTIKELEKIANMEALEHYRKIYSDWKERGKTFILNLYHWPLPLWIHDPIAVRKLGPDRAPAGWLDEKTVVEFVKFAAFVAYHLDDLVDMWSTMNEPNVVYNQGYINLRSGFPPGYLSFEAAEKAKFNLIQAHIGAYDAIKEYSEKSVGVIYAFAWHDPLAEEYKDEVEEIRKKDYEFVTILHSKGKLDWIGVNYYSRLVYGAKDGHLVPLPGYGFMSERGGFAKSGRPASDFGWEMYPEGLENLLKYLNNAYELPMIITENGMADAADRYRPHYLVSHLKAVYNAMKEGADVRGYLHWSLTDNYEWAQGFRMRFGLVYVDFETKKRYLRPSALVFREIATQKEIPEELAHLADLKFVTRK",Km,,29.1 ± 1.9 µM
same,kcat,,0.89 ± 0.04 s⁻¹
"CelB (Pyrococcus furiosus; K436N/L412W/Y416H) (protein, homotetramer) MKFPKNFMFGYSWSGFQFEMGLPGSEVESDWWVWVHDKENIASGLVSGDLPENGPAYWHLYKQDHDIAEKLGMDCIRGGIEWARIFPKPTFDVKVDVEKDEEGNIISVDVPESTIKELEKIANMEALEHYRKIYSDWKERGKTFILNLYHWPLPLWIHDPIAVRKLGPDRAPAGWLDEKTVVEFVKFAAFVAYHLDDLVDMWSTMNEPNVVYNQGYINLRSGFPPGYLSFEAAEKAKFNLIQAHIGAYDAIKEYSEKSVGVIYAFAWHDPLAEEYKDEVEEIRKKDYEFVTILHSKGKLDWIGVNYYSRLVYGAKDGHLVPLPGYGFMSERGGFAKSGRPASDFGWEMYPEGLENLLKYLNNAYELPMIITENGMADAADRYRPHYLVSHLKAVYNAMKEGADVRGYLHWSWTDNHEWAQGFRMRFGLVYVDFETNKRYLRPSALVFREIATQKEIPEELAHLADLKFVTRK",Km,variant W10,17.6 ± 3.6 µM
same,kcat,variant W10,1.15 ± 0.18 s⁻¹
"CelB (Pyrococcus furiosus; E365K/G72E) (protein, homotetramer) MKFPKNFMFGYSWSGFQFEMGLPGSEVESDWWVWVHDKENIASGLVSGDLPENGPAYWHLYKQDHDIAEKLEMDCIRGGIEWARIFPKPTFDVKVDVEKDEEGNIISVDVPESTIKELEKIANMEALEHYRKIYSDWKERGKTFILNLYHWPLPLWIHDPIAVRKLGPDRAPAGWLDEKTVVEFVKFAAFVAYHLDDLVDMWSTMNEPNVVYNQGYINLRSGFPPGYLSFEAAEKAKFNLIQAHIGAYDAIKEYSEKSVGVIYAFAWHDPLAEEYKDEVEEIRKKDYEFVTILHSKGKLDWIGVNYYSRLVYGAKDGHLVPLPGYGFMSERGGFAKSGRPASDFGWEMYPEGLENLLKYLNNAYKLPMIITENGMADAADRYRPHYLVSHLKAVYNAMKEGADVRGYLHWSLTDNYEWAQGFRMRFGLVYVDFETKKRYLRPSALVFREIATQKEIPEELAHLADLKFVTRK",Km,variant AA10,19.3 ± 2.5 µM
same,kcat,variant AA10,1.16 ± 0.10 s⁻¹
